Laboratory results published in patent US20110054149A1 (published 2011).
Where a chain is given by its changes, count along the chain named. Blank lines part the entries; values can stand above or below the binder they belong to.

Legend:
GST-human NOGO-A56 [1] = molecular target: T1, GST-human NOGO-A56 (human, UniProt Q9NQC3 586-785); experiment: SPR (Biacore 3000), GST-human NOGO-A56 amine-coupled to CM5 chip, antibody as analyte; mean (SD) of four experiments
T1 construct: also called hNOGO; recombinant human NOGO; not shown: Glutathione S-transferase (GST) tag encoded by vector pGEX-6P1, N-terminal to the NOGO-A fragment; the tag and linker se
T1 sequence: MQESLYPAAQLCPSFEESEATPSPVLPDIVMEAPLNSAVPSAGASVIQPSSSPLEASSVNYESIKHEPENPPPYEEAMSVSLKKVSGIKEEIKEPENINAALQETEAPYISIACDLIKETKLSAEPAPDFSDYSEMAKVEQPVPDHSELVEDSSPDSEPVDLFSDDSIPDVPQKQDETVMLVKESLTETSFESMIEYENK
Protocol: (§1) The binding kinetics of the anti-NOGO monoclonal antibody (mAb) to recombinantly expressed human NOGO-A (GST-human NOGO-A56) was analysed using the Biacore3000 biosensor. The hNOGO-A chip was prepared as follows:
(§2) hNOGO (GST-human NOGO-A56) was immobilised to a CM5 chip by primary amine coupling using the Biacore Wizard program designed for targeted immobilisation levels. The CM5 sensor surface was activated by passing a solution of 50 mM N-hydroxy-succinimide (NHS) and 200 mM N-ethyl-N′-dimethylaminopropyl […] (EDC). Then hNOGO in sodium acetate buffer, pH5.0 or pH 4.5, was passed over the chip and immobilised. After immobilisation was complete any still activated esters were blocked by an injection of 1M ethanolamine hydrochloride, pH8.5.
(§3) The anti-NOGO mAbs were diluted down in HBS-EP (10 mM HEPES, pH 7.4, 150 mM NaCl, 3 mM EDTA, and 0.005% P-20 surfactant) and binding studies were carried out at range of defined antibody concentrations. All runs were referenced against a blanked sensor surface (one that had been activated and blocked as described earlier but had no addition of ligand). Analysis of binding was carried out using the BIAevaluation kinetic analysis software version 4.1. Biacore analysis of other antibodies of the invention essentially followed the same protocol as described herein.

GST-human NOGO-A56 [2] = molecular target: T1, GST-human NOGO-A56; experiment: SPR (Biacore 3000), GST-human NOGO-A56 on CM5 chip, antibody as analyte; single experiment
Protocol: as §1, §2, §3

GST-human NOGO-A56 [3] = molecular target: T1, GST-human NOGO-A56; experiment: SPR off-rate ranking (Biacore), CHO-K1 transfection supernatant over GST-human NOGO-A56 chip; mean (SD) of three experiments
Protocol: as §2
(§4) The hNOGO chip was prepared as for kinetic analysis. Cell supernatants where taken directly from transient transfections of CHO—K1 cells. These were passed directly over the sensor surface and the interaction measured. A mock transfected cell supernatant was used for double referencing to remove any artefacts due to the tissue culture media. All runs were referenced against a blanked sensor surface (one that had been activated and blocked as described earlier but had no addition of ligand). Analysis of binding was carried out using the BIAevaluation kinetic analysis software version 4.1.

GST-human NOGO-A56 [4] = molecular target: T1, GST-human NOGO-A56; experiment: SPR (Biacore 3000), GST-human NOGO-A56 on CM5 chip, antibody as analyte; single experiment; remark: listed apart in the source
Protocol: as §1, §2, §3

GST-human NOGO-A56 [5] = molecular target: T1, GST-human NOGO-A56; experiment: SPR off-rate ranking (Biacore), CHO-K1 transfection supernatant over GST-human NOGO-A56 chip; mean (SD) of two experiments
Protocol: as §2, §4

GST-human NOGO-A56 [6] = molecular target: T1, GST-human NOGO-A56; experiment: SPR (Biacore 3000), GST-human NOGO-A56 on CM5 chip, antibody as analyte; mean (SD) of two experiments
Protocol: as §1, §2, §3

GST-human NOGO-A56 [7] = molecular target: T1, GST-human NOGO-A56; experiment: SPR (BiaCore kinetic analysis), told in the summary section

Kd (GST-human NOGO-A56 [1]): 18.6 nM
koff (GST-human NOGO-A56 [1]): 0.0314 s⁻¹
kon (GST-human NOGO-A56 [1]): 1.73e+06 M⁻¹ s⁻¹
koff (GST-human NOGO-A56 [2]): 0.0284 s⁻¹
kon (GST-human NOGO-A56 [2]): 1.33e+06 M⁻¹ s⁻¹
koff (GST-human NOGO-A56 [3]): 0.0403 s⁻¹
B1: H1L11 (antibody, human IgG1, kappa, V domains shown)
VH: QVQLVQSGAEVKKPGASVKVSCKASGYTFTSYWMHWVRQAPGQGLEWMGNINPSNGGTNYNEKFKSRVTMTRDTSTSTVYMELSSLRSEDTAVYYCELGQGYWGQGTLVTVSS
VL: DIVITQSPLSLPVTLGQPASISCRSSKSLLYKDGKTYLNWFQQRPGQSPQLLIYLMSTRASGVPDRFSGGGSGTDFTLKISRVEAEDVGVYYCQQLVEYPLTFGQGTKLEIKR
notes: human gamma-1 mutated constant region, human kappa

Kd (GST-human NOGO-A56 [1]): 1.26 nM
koff (GST-human NOGO-A56 [1]): 0.00554 s⁻¹
kon (GST-human NOGO-A56 [1]): 4.37e+06 M⁻¹ s⁻¹
Kd (GST-human NOGO-A56 [2]): 1 nM
koff (GST-human NOGO-A56 [2]): 0.00569 s⁻¹
kon (GST-human NOGO-A56 [2]): 5.47e+06 M⁻¹ s⁻¹
koff (GST-human NOGO-A56 [3]): 0.00664 s⁻¹
B2: H16L16 (antibody, human IgG1, kappa)
heavy: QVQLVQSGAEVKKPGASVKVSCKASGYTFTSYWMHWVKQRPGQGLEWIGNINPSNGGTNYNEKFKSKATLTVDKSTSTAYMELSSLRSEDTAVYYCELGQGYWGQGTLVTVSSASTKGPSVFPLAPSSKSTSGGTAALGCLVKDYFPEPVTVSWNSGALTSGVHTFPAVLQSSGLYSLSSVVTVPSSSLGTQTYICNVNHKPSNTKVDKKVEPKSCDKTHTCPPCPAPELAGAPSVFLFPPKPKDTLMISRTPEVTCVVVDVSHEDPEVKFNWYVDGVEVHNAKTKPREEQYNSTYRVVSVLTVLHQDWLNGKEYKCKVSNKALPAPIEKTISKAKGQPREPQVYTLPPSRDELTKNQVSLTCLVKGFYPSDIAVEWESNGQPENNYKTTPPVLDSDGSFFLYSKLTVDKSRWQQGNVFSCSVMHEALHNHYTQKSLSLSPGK
light: DIVMTQSPLSNPVTLGQPVSISCRSSKSLLYKDGKTYLNWFLQRPGQSPQLLIYLMSTRASGVPDRFSGGGSGTDFTLKISRVEAEDVGVYYCQQLVEYPLTFGQGTKLEIKRTVAAPSVFIFPPSDEQLKSGTASVVCLLNNFYPREAKVQWKVDNALQSGNSQESVTEQDSKDSTYSLSSTLTLSKADYEKHKVYACEVTHQGLSSPVTKSFNRGEC
notes: Humanised 2A10; human gamma-1 mutated constant region, human kappa; also called H16L16 FL

Kd (GST-human NOGO-A56 [1]): 7.68 nM
koff (GST-human NOGO-A56 [1]): 0.0137 s⁻¹
kon (GST-human NOGO-A56 [1]): 1.82e+06 M⁻¹ s⁻¹
Kd (GST-human NOGO-A56 [2]): 7.3 nM
koff (GST-human NOGO-A56 [2]): 0.013 s⁻¹
kon (GST-human NOGO-A56 [2]): 1.77e+06 M⁻¹ s⁻¹
Kd (GST-human NOGO-A56 [4]): 7.9 nM
koff (GST-human NOGO-A56 [4]): 0.0233 s⁻¹
kon (GST-human NOGO-A56 [4]): 2.95e+06 M⁻¹ s⁻¹
koff (GST-human NOGO-A56 [3]): 0.0173 s⁻¹
B3: H6L13 (antibody, human IgG1, kappa, V domains shown)
VH: B1 VH with M48I, V68A, V79A
VL: B1 VL with I4M
notes: Humanised 2A10; human gamma-1 mutated constant region, human kappa; also called H6L13 FL

Kd (GST-human NOGO-A56 [1]): 1.33 nM
koff (GST-human NOGO-A56 [1]): 0.00552 s⁻¹
kon (GST-human NOGO-A56 [1]): 4.18e+06 M⁻¹ s⁻¹
koff (GST-human NOGO-A56 [3]): 0.00609 s⁻¹
B4: H16L18 (antibody, human IgG1, kappa, V domains shown)
VH: B1 VH with R38K, A40R, M48I, R67K, V68A, M70L, R72V, T74K, V79A
VL: B1 VL with I4M, S7D, L11N, A19V, Q42L, P64S, G70S
notes: Humanised 2A10; human gamma-1 mutated constant region, human kappa; also called H16L18 FL

Kd (GST-human NOGO-A56 [1]): 1.62 nM
koff (GST-human NOGO-A56 [1]): 0.00586 s⁻¹
kon (GST-human NOGO-A56 [1]): 3.64e+06 M⁻¹ s⁻¹
koff (GST-human NOGO-A56 [5]): 0.00687 s⁻¹
B5: H18L16 (antibody, human IgG1, kappa, V domains shown)
VH: QVQLVQSGAEVVKPGASVKLSCKASGYTFTSYWMHWVKQRPGQGLEWIGNINPSNGGTNYNEKFKSKATLTVDKSSSTAYMELSSLRSEDSAVYYCELGQGYWGQGTLVTVSS
VL: B1 VL with I4M, L11N, A19V, Q42L
notes: Humanised 2A10; human gamma-1 mutated constant region, human kappa; also called H18L16 FL

Kd (GST-human NOGO-A56 [1]): 1.41 nM
koff (GST-human NOGO-A56 [1]): 0.00378 s⁻¹
kon (GST-human NOGO-A56 [1]): 2.7e+06 M⁻¹ s⁻¹
koff (GST-human NOGO-A56 [5]): 0.00376 s⁻¹
Kd (GST-human NOGO-A56 [2]): 1.6 nM
koff (GST-human NOGO-A56 [2]): 0.00412 s⁻¹
kon (GST-human NOGO-A56 [2]): 2.62e+06 M⁻¹ s⁻¹
Kd (GST-human NOGO-A56 [6]): 0.995 nM
koff (GST-human NOGO-A56 [6]): 0.00346 s⁻¹
kon (GST-human NOGO-A56 [6]): 3.52e+06 M⁻¹ s⁻¹
B6: HcLc (chimera of 2A10: murine 2A10 VH and VL with human IgG constant regions) (antibody, V domains shown)
VH: B5 VH with V5Q, S7P, A9T, V11L, E82Q, R87T
VL: DIVITQDELSNPVTSGESVSISCRSSKSLLYKDGKTYLNWFLQRPGQSPQLLIYLMSTRASGVSDRFSGSGSGTDFTLEISRVKAEDVGVYYCQQLVEYPLTFGAGTKLELKR
notes: also called 2A10 chimeric antibody; the chimera

Kd (GST-human NOGO-A56 [7]): ~1 nM
B7: murine monoclonal antibody 2A10 (antibody, V domains shown)
VH: B5 VH with V5Q, S7P, A9T, V11L, E82Q, R87T, L108T, V109L
VL: DIVITQDELSNPVTSGESVSISCRSSKSLLYKDGKTYLNWFLQRPGQSPQLLIYLMSTRASGVSDRFSGSGSGTDFTLEISRVKAEDVGVYYCQQLVEYPLTFGAGTKLELK
notes: Murine antibody; also called donor antibody
